Data: PMC9375587 (2022)

Biological target: Thrombin (Homo sapiens, UniProt P00734)
Assay: solid-phase binding assay

B1: Myeloperoxidase (protein)
chain: not shown
Q: B1 was tested. Which Kd did it give?
A: 101 nM
